Measurements reported in patent US20060259987A1 (UNIVERSITY OF UTAH RESEARCH FOUNDATION, published 2006).

Experiments:
[1] = molecular target: T1, human neutrophil cathepsin G (human, UniProt P08311 21-244); experiment: cell-based or functional assay
T1 sequence (looked up): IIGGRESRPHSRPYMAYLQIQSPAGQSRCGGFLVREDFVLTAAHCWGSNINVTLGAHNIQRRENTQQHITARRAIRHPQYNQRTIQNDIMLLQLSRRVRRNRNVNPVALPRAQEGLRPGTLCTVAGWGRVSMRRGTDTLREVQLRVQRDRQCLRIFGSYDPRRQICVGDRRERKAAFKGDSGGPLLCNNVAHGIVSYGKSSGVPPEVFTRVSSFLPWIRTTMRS

[2] = molecular target: T2, human neutrophil elastase (human, UniProt P08246 30-247, limits assumed); experiment: cell-based or functional assay
T2 sequence (looked up): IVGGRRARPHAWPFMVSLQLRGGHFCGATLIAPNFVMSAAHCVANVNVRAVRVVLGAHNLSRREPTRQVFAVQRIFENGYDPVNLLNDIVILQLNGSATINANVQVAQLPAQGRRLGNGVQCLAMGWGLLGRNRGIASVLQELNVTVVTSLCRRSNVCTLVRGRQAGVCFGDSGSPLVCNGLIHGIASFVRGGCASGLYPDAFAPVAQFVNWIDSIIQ

human factor Xa = human factor Xa (human, UniProt P00742 41-179; P00742 235-488, limits assumed); experiment: cell-based or functional assay
human factor Xa, sequence (P00742 41-179 limits assumed, chain 1 of 2): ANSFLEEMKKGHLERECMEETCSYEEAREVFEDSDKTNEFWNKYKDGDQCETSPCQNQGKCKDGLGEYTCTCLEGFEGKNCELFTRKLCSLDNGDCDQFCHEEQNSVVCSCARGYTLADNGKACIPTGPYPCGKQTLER
human factor Xa, sequence (P00742 235-488 limits assumed, chain 2 of 2): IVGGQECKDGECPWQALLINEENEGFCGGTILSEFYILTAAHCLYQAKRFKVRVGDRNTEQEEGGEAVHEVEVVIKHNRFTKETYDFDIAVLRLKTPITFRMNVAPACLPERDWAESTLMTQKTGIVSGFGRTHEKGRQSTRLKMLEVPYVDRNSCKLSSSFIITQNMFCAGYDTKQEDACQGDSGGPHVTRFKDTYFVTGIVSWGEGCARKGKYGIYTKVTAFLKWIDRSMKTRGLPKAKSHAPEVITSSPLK

human thrombin = human thrombin (human, UniProt P00734 328-622); experiment: cell-based or functional assay
thrombin [3] = molecular target: T3, thrombin (human, UniProt P00734 328-622); experiment: heparin cofactor assay, HCA expt #2; ATIII titrated on 10 nM thrombin + 50 ug/ml UFH, chromogenic readout
Experimental: (§1) After 3 minutes, the reactions were quenched with polybrene and chromogenic substrate S2238 (thrombin) or S2765 (fXa), and the initial rate of chromophore production (405 nm) recorded to obtain a measurement residual, uninhibited thrombin or factor Xa. IC50s were determined from plots of ATIII concentration vs. percent residual target enzyme activity.

factor Xa [4] = molecular target: T4, factor Xa (human, UniProt P00742 41-179; P00742 235-488, limits assumed); experiment: heparin cofactor assay, HCA expt #2; ATIII titrated on 10 nM fXa + 50 ug/ml UFH, chromogenic readout
T4 construct: Active factor Xa has a light and a heavy chain; also called fXa
T4 sequence (P00742 41-179 limits assumed, form in doubt, chain 1 of 2): as the sequence (P00742 41-179 limits assumed, chain 1 of 2) above
T4 sequence (P00742 235-488 limits assumed, form in doubt, chain 2 of 2): as the sequence (P00742 235-488 limits assumed, chain 2 of 2) above
Experimental: as §1

thrombin [5] = molecular target: T3, thrombin; experiment: cell-based or functional assay
factor Xa [6] = molecular target: T4, factor Xa; experiment: cell-based or functional assay

B1: 13C.511 (other)
chain: SPVDICTAKPRDIPMNPMCIYRSPEKKATEDEGSEQKIPEATNRRVWELSKANSRFATTFYQHLADSKNDNDNIFLSPLSISTAFAMTKLGACNDTLQQLMEVFKFDTISEKTSDQIHFFFAKLNCRLYRKANKASKLVSANRLFGDKSLTFNETYQDISELVYGAKLQPLDFKENAEQSRAAINKWVSNKTEGRITDVIPSEAINELTVLVLVNTIYFKGLWKSKFSPENTRKELFYKADGESCSASMMYQEGKFRYRRVAEGTQVLELPFKGDDITMVLILPKPEKSLAKVEKELTPEVLQEWLDELEEMMLVVHMPRFRIEDGFSLKEQLQDMGLVDLFSPEKSKLPGIVAEGRDDLYVSDAFHKAFLEVNEEGSEAAASTALEIAGRSLNPNRVTFKANRPFLVFIREVPLNTIIFMGRVANPCVK
- rsd IIa, catG (CA #51, stg 1 conc 200) [1]: 1%
- rsd IIa, catG (CA #52, stg 1 conc 200) [1]: 5%
- rsd Xa, catG (CA #51, stg 1 conc 200) [1]: -2%
- rsd Xa, catG (CA #52, stg 1 conc 200) [1]: 1%
- rsd IIa, HNE (CA #51, stg 1 conc 200) [2]: 54%
- rsd IIa, HNE (CA #52, stg 1 conc 200) [2]: 84%
- rsd Xa, HNE (CA #51, stg 1 conc 200) [2]: -3%
- rsd Xa, HNE (CA #52, stg 1 conc 200) [2]: 92%
- IC50 fXa/UFH (HCA #5) (human factor Xa): 30 nM
- IC50 fXa/UFH (HCA #6) (human factor Xa): 40 nM
- rsd Xa, no add (CA #51, stg 1 conc 200) (human factor Xa): -1%
- rsd Xa, no add (CA #52, stg 1 conc 200) (human factor Xa): 2%
- IC50 IIa/UFH (HCA #5) (human thrombin): 150 nM
- IC50 IIa/UFH (HCA #6) (human thrombin): 130 nM
- rsd IIa, no add (CA #51, stg 1 conc 200) (human thrombin): 2%
- rsd IIa, no add (CA #52, stg 1 conc 200) (human thrombin): 5%

B2: 13C.432 (other)
chain: SPVDICTAKPRDIPMNPMCIYRSPEKKATEDEGSEQKIPEATNRRVWELSKANSRFATTFYQHLADSKNDNDNIFLSPLSISTAFAMTKLGACNDTLQQLMEVFKFDTISEKTSDQIHFFFAKLNCRLYRKANKASKLVSANRLFGDKSLTFNETYQDISELVYGAKLQPLDFKENAEQSRAAINKWVSNKTEGRITDVIPSEAINELTVLVLVNTIYFKGLWKSKFSPENTRKELFYKADGESCSASMMYQEGKFRYRRVAEGTQVLELPFKGDDITMVLILPKPEKSLAKVEKELTPEVLQEWLDELEEMMLVVHMPRFRIEDGFSLKEQLQDMGLVDLFSPEKSKLPGIVAEGRDDLYVSDAFHKAFLEVNEEGSEAAASTELEIAGRSLNPNRVTFKANRPFLVFIREVPLNTIIFMGRVANPCVK
notes: Made in Drosophila S2 cells (DES) on the S137A background; N-terminus printed as SPVDI---
- IC50 (thrombin [3]): 460 nM
- IC50 (factor Xa [4]): 45 nM
- rsd. IIa catG; CA expt #7; stg1 conc 200 (thrombin [5]): 5 % of activity without ATIII
- rsd. IIa catG; CA expt #8; stg1 conc 200 (thrombin [5]): 8 % of activity without ATIII
- rsd. IIa hne; CA expt #7; stg1 conc 200 (thrombin [5]): 3 % of activity without ATIII
- rsd. IIa hne; CA expt #8; stg1 conc 200 (thrombin [5]): 16 % of activity without ATIII
- rsd. IIa no add; CA expt #7; stg1 conc 200 (thrombin [5]): 5 % of activity without ATIII
- rsd. IIa no add; CA expt #8; stg1 conc 200 (thrombin [5]): 5 % of activity without ATIII
- rsd. Xa catG; CA expt #7; stg1 conc 200 (factor Xa [6]): 3 % of activity without ATIII
- rsd. Xa catG; CA expt #8; stg1 conc 200 (factor Xa [6]): 1 % of activity without ATIII
- rsd. Xa hne; CA expt #7; stg1 conc 200 (factor Xa [6]): 2 % of activity without ATIII
- rsd. Xa hne; CA expt #8; stg1 conc 200 (factor Xa [6]): 1 % of activity without ATIII
- rsd. Xa no add; CA expt #7; stg1 conc 200 (factor Xa [6]): 4 % of activity without ATIII
- rsd. Xa no add; CA expt #8; stg1 conc 200 (factor Xa [6]): 1 % of activity without ATIII

B3: 13C.435 (other)
chain: SPVDICTAKPRDIPMNPMCIYRSPEKKATEDEGSEQKIPEATNRRVWELSKANSRFATTFYQHLADSKNDNDNIFLSPLSISTAFAMTKLGACNDTLQQLMEVFKFDTISEKTSDQIHFFFAKLNCRLYRKANKASKLVSANRLFGDKSLTFNETYQDISELVYGAKLQPLDFKENAEQSRAAINKWVSNKTEGRITDVIPSEAINELTVLVLVNTIYFKGLWKSKFSPENTRKELFYKADGESCSASMMYQEGKFRYRRVAEGTQVLELPFKGDDITMVLILPKPEKSLAKVEKELTPEVLQEWLDELEEMMLVVHMPRFRIEDGFSLKEQLQDMGLVDLFSPEKSKLPGIVAEGRDDLYVSDAFHKAFLEVNEEGSEAAASTELEWAGRSLNPNRVTFKANRPFLVFIREVPLNTIIFMGRVANPCVK
notes: as for B2
- IC50 (thrombin [3]): 700 nM
- IC50 (factor Xa [4]): 34 nM
- rsd. IIa catG; CA expt #7; stg1 conc 200 (thrombin [5]): 5 % of activity without ATIII
- rsd. IIa hne; CA expt #7; stg1 conc 200 (thrombin [5]): 4 % of activity without ATIII
- rsd. IIa no add; CA expt #7; stg1 conc 200 (thrombin [5]): 5 % of activity without ATIII
- rsd. Xa catG; CA expt #7; stg1 conc 200 (factor Xa [6]): 3 % of activity without ATIII
- rsd. Xa hne; CA expt #7; stg1 conc 200 (factor Xa [6]): 3 % of activity without ATIII
- rsd. Xa no add; CA expt #7; stg1 conc 200 (factor Xa [6]): 3 % of activity without ATIII
